Data reported in patent publication US20220017635A1.

How the values were obtained:
[1] = molecular target: chimeric TfR A04 (human/mouse chimera) (UniProt P02786); assay: ELISA on immobilized chimeric TfR; grade = binding relative to His-huTfR (++ 0.5 or more, + 0.2 to less than 0.5)
[2] = molecular target: chimeric TfR A07 (human/mouse chimera) (UniProt P02786); assay: as above
[3] = molecular target: huTfR with mouse protease-like domain (human/mouse chimera); assay: as above
[4] = molecular target: chimeric TfR A14 (human/mouse chimera) (UniProt P02786); assay: as above
[5] = molecular target: chimeric TfR A03 (human/mouse chimera) (UniProt P02786); assay: as above
[6] = molecular target: chimeric TfR A05 (human/mouse chimera) (UniProt P02786); assay: as above
[7] = molecular target: chimeric TfR A02 (human/mouse chimera) (UniProt P02786); assay: ELISA on immobilized chimeric TfR
[8] = molecular target: huTfR with mouse apical domain (human/mouse chimera) (UniProt P02786); assay: ELISA on immobilized chimeric TfR
[9] = molecular target: chimeric TfR A04 (human/mouse chimera) (UniProt P02786); assay: ELISA on immobilized chimeric TfR
[10] = molecular target: chimeric TfR A03 (human/mouse chimera) (UniProt P02786); assay: ELISA on immobilized chimeric TfR

Sequence of chimeric TfR A14 (human/mouse chimera) (P02786 other isoform, or with tags, fused parts or gaps mutant): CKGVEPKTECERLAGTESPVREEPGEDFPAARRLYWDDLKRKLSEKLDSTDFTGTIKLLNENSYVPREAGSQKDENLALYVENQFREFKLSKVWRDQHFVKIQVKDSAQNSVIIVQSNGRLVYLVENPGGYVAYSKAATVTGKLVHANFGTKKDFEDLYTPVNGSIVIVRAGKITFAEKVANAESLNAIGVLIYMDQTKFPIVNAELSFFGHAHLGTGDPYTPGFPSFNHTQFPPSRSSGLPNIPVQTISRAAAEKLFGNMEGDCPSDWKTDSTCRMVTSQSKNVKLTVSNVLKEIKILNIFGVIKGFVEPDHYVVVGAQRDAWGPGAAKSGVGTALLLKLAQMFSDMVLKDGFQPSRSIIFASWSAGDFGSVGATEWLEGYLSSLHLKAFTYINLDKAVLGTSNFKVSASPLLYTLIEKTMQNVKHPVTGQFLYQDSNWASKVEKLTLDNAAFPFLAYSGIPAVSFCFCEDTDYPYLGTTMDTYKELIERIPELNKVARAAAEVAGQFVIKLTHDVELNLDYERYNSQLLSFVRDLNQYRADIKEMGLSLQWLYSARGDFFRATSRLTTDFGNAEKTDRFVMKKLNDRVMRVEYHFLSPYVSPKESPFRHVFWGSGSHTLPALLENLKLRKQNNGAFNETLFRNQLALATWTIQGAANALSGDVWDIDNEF
Sequence of chimeric TfR A04 (human/mouse chimera) (P02786 other isoform, or with tags, fused parts or gaps mutant): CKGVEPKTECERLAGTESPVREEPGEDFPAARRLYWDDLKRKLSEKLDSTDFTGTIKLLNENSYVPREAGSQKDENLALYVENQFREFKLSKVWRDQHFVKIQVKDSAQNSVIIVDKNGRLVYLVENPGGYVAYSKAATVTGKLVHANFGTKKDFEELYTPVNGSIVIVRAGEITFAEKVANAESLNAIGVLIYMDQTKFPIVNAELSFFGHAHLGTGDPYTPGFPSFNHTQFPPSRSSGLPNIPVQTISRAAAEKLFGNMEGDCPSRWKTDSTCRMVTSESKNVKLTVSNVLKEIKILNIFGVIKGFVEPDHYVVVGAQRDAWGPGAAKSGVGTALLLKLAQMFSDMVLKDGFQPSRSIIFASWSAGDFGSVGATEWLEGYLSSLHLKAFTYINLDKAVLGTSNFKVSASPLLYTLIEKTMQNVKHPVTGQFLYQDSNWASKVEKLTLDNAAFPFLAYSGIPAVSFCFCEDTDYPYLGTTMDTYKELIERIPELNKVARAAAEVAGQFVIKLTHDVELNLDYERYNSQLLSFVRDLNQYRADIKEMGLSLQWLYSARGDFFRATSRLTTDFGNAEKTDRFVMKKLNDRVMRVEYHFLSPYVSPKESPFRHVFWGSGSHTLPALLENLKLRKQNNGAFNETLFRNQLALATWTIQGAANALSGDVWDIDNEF
Sequence of chimeric TfR A05 (human/mouse chimera) (P02786 other isoform, or with tags, fused parts or gaps mutant): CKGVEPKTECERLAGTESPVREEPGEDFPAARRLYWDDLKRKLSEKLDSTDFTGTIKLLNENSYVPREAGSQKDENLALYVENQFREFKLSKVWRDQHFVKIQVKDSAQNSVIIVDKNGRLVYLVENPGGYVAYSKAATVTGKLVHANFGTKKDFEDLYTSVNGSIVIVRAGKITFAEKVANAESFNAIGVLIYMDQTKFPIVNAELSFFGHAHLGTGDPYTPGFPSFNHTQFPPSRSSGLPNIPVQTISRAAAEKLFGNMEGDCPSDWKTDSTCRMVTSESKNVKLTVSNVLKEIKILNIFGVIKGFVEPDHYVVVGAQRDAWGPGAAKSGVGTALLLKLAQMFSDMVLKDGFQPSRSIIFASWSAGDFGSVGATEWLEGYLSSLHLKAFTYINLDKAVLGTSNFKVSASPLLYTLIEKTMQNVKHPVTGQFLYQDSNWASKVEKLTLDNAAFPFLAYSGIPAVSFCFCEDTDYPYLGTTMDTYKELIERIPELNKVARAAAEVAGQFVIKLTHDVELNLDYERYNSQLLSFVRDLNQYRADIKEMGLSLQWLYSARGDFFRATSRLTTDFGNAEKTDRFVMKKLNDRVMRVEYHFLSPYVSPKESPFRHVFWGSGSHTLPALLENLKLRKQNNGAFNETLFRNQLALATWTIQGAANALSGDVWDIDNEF
Sequence of chimeric TfR A03 (human/mouse chimera) (P02786 other isoform, or with tags, fused parts or gaps mutant): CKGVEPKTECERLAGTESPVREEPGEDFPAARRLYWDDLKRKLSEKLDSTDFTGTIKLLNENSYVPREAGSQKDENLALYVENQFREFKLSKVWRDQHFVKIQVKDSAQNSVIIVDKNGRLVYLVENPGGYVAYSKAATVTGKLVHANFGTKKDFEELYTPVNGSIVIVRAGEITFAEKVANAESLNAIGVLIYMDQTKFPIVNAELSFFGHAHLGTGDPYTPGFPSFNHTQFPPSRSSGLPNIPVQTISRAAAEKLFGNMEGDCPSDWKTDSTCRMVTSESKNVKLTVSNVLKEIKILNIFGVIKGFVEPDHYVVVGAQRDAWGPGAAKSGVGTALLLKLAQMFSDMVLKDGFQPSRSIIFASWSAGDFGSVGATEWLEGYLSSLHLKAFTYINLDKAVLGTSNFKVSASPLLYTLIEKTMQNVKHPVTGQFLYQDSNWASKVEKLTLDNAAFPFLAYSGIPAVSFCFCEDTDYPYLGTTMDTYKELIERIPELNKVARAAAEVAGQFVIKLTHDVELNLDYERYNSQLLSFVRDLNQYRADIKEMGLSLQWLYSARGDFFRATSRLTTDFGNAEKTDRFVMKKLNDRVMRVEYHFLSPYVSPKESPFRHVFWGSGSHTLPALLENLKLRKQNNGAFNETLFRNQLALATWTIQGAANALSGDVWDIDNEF
Sequence of chimeric TfR A07 (human/mouse chimera) (P02786 other isoform, or with tags, fused parts or gaps mutant): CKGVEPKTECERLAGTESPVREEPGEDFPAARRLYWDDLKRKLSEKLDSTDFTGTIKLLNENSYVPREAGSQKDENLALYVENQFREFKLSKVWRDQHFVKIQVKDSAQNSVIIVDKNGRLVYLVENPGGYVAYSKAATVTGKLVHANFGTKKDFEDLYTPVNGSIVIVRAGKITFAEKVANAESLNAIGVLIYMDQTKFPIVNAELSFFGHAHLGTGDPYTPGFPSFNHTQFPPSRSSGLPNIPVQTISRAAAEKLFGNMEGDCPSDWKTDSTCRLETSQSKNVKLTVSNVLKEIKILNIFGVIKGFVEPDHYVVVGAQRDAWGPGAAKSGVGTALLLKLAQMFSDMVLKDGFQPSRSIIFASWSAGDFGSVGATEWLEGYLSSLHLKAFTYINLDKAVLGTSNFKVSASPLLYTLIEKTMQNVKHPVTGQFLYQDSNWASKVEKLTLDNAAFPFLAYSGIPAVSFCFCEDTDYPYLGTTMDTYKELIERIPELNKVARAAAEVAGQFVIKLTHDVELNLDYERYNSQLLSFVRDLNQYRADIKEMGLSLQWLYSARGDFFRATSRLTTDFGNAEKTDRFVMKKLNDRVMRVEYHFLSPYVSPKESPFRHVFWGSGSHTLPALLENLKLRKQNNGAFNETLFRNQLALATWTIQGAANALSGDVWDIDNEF
Sequence of huTfR with mouse protease-like domain (human/mouse chimera) (chain, as listed by the source mutant limits assumed): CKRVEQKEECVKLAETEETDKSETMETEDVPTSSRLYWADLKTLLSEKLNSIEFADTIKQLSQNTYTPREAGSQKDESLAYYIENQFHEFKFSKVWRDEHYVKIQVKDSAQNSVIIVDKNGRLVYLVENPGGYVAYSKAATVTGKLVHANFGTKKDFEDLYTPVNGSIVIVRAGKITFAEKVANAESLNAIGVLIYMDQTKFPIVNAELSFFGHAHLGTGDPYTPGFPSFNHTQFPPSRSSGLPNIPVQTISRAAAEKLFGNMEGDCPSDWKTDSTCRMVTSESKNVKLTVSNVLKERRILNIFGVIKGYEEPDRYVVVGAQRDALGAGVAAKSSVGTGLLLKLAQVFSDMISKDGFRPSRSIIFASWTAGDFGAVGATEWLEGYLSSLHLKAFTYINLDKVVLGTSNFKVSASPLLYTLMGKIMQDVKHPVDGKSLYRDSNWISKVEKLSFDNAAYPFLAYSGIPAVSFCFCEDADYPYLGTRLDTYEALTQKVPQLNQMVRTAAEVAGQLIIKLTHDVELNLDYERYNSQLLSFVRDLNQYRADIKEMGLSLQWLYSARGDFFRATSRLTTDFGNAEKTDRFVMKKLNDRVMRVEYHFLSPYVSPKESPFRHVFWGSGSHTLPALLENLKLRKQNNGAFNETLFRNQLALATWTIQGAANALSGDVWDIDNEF
Sequence of chimeric TfR A02 (human/mouse chimera) (P02786 other isoform, or with tags, fused parts or gaps mutant): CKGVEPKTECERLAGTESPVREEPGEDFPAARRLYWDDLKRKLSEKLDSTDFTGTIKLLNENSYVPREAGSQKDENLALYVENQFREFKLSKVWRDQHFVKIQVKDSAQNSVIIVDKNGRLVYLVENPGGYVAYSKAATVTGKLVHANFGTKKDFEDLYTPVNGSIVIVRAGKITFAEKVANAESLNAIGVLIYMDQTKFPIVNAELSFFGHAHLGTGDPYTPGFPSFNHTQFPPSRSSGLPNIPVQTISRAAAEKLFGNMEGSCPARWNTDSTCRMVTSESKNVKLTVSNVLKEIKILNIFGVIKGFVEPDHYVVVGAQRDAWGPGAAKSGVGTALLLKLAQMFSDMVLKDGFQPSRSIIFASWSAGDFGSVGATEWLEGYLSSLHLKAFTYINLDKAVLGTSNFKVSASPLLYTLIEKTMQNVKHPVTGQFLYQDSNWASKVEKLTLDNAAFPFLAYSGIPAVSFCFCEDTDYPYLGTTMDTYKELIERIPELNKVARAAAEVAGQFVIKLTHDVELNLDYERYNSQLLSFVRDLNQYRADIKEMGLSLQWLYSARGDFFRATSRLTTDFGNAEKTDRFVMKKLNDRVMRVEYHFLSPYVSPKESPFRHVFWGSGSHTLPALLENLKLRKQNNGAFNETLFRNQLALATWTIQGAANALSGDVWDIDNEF

ratio of ELISA binding activity (A450-A570) to chimeric TfR over that to His-huTfR [1] | ratio of ELISA binding activity (A450-A570) to chimeric TfR over that to His-huTfR [2] | ratio of ELISA binding activity (A450-A570) to chimeric TfR over that to His-huTfR [3] | ratio of ELISA binding activity (A450-A570) to chimeric TfR over that to His-huTfR [4] | ratio of ELISA binding activity (A450-A570) to chimeric TfR over that to His-huTfR [5] | ratio of ELISA binding activity (A450-A570) to chimeric TfR over that to His-huTfR [6] | ratio of ELISA binding activity (A450-A570) to chimeric TfR over that to His-huTfR [7] | ratio of ELISA binding activity (A450-A570) to chimeric TfR over that to His-huTfR [8] | ratio of ELISA binding activity (A450-A570) to chimeric TfR over that to His-huTfR [9] | ratio of ELISA binding activity (A450-A570) to chimeric TfR over that to His-huTfR [10] | Binder
0.2 to 0.5 | > 0.5 | > 0.5 | > 0.5 | > 0.5 | > 0.5 | < 0.2 | < 0.2 |  |  | 16F6v4 (antibody, from another filing, V domains shown) VH: EVQLVESGPGLVKPSETLSLTCTVSGNSITSEYAWNWIRQPPGKGLEWIGYISYSGTTSYNPSLKSRVTISRDTSKNQLSLKLSSVTAADTAVYYCARYGYGNPATRYFDVWGQGTLVTVSS VL: DIQMTQSPSSLSASVGDRVTITCRASKSISKYLAWYQQKPGKTNKLLLYSGSTLQSGVPSRFSGSGSGTDYTLTISSLQPEDFATYYCQQHNEYPWTFGQGTKVEIK
0.2 to 0.5 | 0.2 to 0.5 | > 0.5 | > 0.5 | > 0.5 | > 0.5 | < 0.2 | < 0.2 |  |  | 7A4v15 (antibody, from another filing, V domains shown) VH: EVQLVQSGAEVKKPGASVKVSCKGSGYTFTDYAMHWVRQAPGQGLEWMGGISTYFGRTNYNQKFKGRVTMTVDTSISTAYMELSRLRSDDTAVYYCARGLSGNYVMDYWGQGTTVTVSS VL: DIVMTQSPDSLAVSLGERATINCRASESVDSYGNSFMHWYQQKPGQPPKLLIYRASNLESGVPDRFSGSGSRTDFTLTISSLQAEDVAVYYCQQSNEAPPTFGQGTKLEIK
 | 0.2 to 0.5 | > 0.5 | > 0.5 |  | > 0.5 | < 0.2 | < 0.2 | < 0.2 | < 0.2 | 15G11v5 (antibody, from another filing, V domains shown) VH: EVQLVQSGAEVKKPGASVKVSCKASGYTFTSYWMHWVRQAPGQRLEWIGEINPTNGRTNYIEKFKSRATLTVDKSASTAYMELSSLRSEDTAVYYCARGTRAYHYWGQGTMVTVSS VL: DIQMTQSPSSLSASVGDRVTITCRASDNLYSNLAWYQQKPGKSPKLLVYDATNLADGVPSRFSGSGSGTDYTLTISSLQPEDFATYYCQHFWGTPLTFGQGTKVEIK
